Assay results taken from patent US20050037963.

Columns and labels:
[1] = test system: HA-tagged full-length FIP200 (pKH3-FIP200, residues 1-1591)
[2] = test system: GST fusion protein containing CT-FIP (pGEX-CT-FIP)

Sequence of FAK immunoprecipitated from Chinese hamster ovary cells overexpressing FAK (Q05397 2-1052): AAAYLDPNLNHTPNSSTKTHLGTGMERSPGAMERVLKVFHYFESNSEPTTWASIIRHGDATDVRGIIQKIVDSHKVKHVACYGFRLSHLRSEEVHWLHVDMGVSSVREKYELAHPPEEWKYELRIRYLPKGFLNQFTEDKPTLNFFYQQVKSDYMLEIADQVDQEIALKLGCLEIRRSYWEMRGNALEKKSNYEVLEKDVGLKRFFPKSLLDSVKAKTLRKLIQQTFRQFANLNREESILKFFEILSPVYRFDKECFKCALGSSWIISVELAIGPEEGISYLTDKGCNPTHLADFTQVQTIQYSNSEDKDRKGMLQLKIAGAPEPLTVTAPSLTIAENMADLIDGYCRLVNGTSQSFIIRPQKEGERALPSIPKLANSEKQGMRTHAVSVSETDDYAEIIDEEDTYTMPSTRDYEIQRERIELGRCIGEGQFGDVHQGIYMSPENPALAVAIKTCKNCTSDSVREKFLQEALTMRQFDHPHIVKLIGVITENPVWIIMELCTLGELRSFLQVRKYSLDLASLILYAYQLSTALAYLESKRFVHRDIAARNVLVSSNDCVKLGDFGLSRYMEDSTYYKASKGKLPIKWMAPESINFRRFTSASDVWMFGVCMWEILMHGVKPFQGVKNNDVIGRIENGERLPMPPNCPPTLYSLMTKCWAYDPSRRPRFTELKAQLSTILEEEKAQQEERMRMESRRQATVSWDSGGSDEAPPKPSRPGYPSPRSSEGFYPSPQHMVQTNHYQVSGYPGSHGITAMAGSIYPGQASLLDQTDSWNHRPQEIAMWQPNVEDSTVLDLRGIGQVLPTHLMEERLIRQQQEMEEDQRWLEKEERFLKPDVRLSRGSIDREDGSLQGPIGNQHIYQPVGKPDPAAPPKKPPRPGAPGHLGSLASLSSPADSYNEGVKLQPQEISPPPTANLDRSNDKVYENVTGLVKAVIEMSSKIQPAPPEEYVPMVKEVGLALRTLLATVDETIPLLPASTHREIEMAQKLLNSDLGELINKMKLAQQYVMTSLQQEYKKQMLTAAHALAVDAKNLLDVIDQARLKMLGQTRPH
Sequence of FAK expressed from an expression vector encoding FAK (tag not stated) (Q05397 2-1052): as above

Substance | rescue of BrdU incorporation (NIH3T3) [1] | FAK kinase activity (in vitro kinase assay, E4Y1 as exogenous substrate) (GST alone [GST: P08515]) | FAK kinase activity (in vitro kinase assay, E4Y1 as exogenous substrate) [2]
FAK expressed from an expression vector encoding FAK (tag not stated) | it rescued the inhibition of BrdU incorporation by FIP200 to the control levels |  | 
FAK immunoprecipitated from Chinese hamster ovary cells overexpressing FAK |  | GST alone did not have any effect | at lower concentrations (e.g., <5 pmol/reaction), GST fusion proteins containing NT-FIP or MD-FIP reduced FAK kinase activity, whereas CT-FIP did not
